Measured values: patent publication US20200164038A1, “MODIFIED NUCLEOSIDE, NUCLEOTIDE, AND NUCLEIC ACID COMPOSITIONS” (ModernaTX, Inc., priority 2011, published 2020)
Read-outs that look alike come from different tables or passages of the source.

Key:
[1] = LNP in vivo study IV, IM, SC, serum G-CSF or EPO by ELISA; conditions: rats, 0.05 mg/kg
Experimental: (§1) Formulations, listed in Table 31, were characterized by particle size, zeta potential, and encapsulation.
LNP formulations, shown in Table 31 (above), were administered to rats (n=5) intravenously (IV), intramuscularly (IM) or subcutaneously (SC) at a single modified mRNA dose of 0.05 mg/kg. A control group of rats (n=4) was untreated. The rats were bled at 2 hours, 8 hours, 24 hours, 48 hours and 96 hours and after they were administered with G-CSF or EPO modified mRNA formulations to determine protein expression using ELISA. The rats administered EPO modified mRNA intravenously were also bled at 7 days.

[2] = Time course in vivo study of LNP, serum G-CSF or EPO by ELISA; conditions: mice IV
Experimental: as §1
LNP formulations, shown in Table 31 (above), were administered to mice (n=5) intravenously (IV) at a single modified mRNA dose of 0.5, 0.05 or 0.005 mg/kg. The mice were bled at 8 hours, 24 hours, 72 hours and 6 days after they were administered with G-CSF or EPO modified mRNA formulations to determine protein expression using ELISA.

[3] = Non-human primate in vivo study, serum G-CSF or EPO by ELISA; set-up: species or system cynomolgus monkey; conditions: for Female NHP Serum Concentration / Male NHP Serum Concentration: G-CSF LNP, 0.05 mg/kg IV
Experimental: as §1
LNP formulations, shown in Table 31 (above), were administered to non-human primates (NHP) (cynomolgus monkey) (n=2) as a bolus intravenous injection (IV) over approximately 30 seconds using a hypodermic needle, which may be attached to a syringe/abbocath or butterfly if needed. The NHP were administered a single modified mRNA IV dose of 0.05 mg/kg of EPO or G-CSF or 0.005 mg/kg of EPO in a dose volume of 0.5 mL/kg. The NHPs were bled 5-6 days before dosing with the modified mRNA LNP formulations to determine protein expression in the serum and a baseline complete blood count. After administration with the modified mRNA formulation the NHP were bled at 8, 24, 48 and 72 hours to determined protein expression. At 24 and 72 hours after administration the complete blood count of the NHP was also determined. Protein expression of G-CSF and EPO was determined by ELISA. Urine from the NHPs was collected over the course of the entire experiment and analyzed to evaluate clinical safety. Samples were collected from the NHPs after they were administered with G-CSF or EPO modified mRNA formulations to determine protein expression using ELISA. Clinical chemistry, hematology, urinalysis and cytokines of the non-human primates were also analyzed.

[4] = Non-human primate serum chemistry: alanine transaminase (ALT), aspartate transaminase (AST); assay type: in vivo, cynomolgus monkey; conditions: for Aspartate Transaminase (AST): Female NHP; for Alanine Transaminase (ALT): Male NHP
[5] = Human G-CSF modified RNA lipoplex I.M., S.C., I.V., serum human G-CSF ELISA 6 hours; assay type: in vivo, C57/BL6 mice; conditions: lipoplexed 30% RNAIMAX
Experimental: 6 hours after administration of a formulation, serum was collected from each mouse to measure the amount of human G-CSF protein in the mouse serum by human G-CSF ELISA and the results are shown in Table 54.

neutrophil count = experiment: Intravenous administration of lipoplexed G-CSF mRNA, neutrophil count; assay type: in vivo; conditions: mice IV, 50 ug RNA in 10% lipoplex at days 0, 2 and 4; day 5
Experimental: Neutrophils were measured at days 1, 5 and 8. Controls included non-specific mammalian RNA or the formulation buffer alone (F.Buffer). The mice were bled at days 1, 5 and 8 to determine the effect of mRNA-encoded human G-CSF to increase neutrophil count. The dosing regimen is shown in Table 64 as are the resulting neutrophil counts (thousands/uL; K/uL).

IFN-alpha = experiment: Cytokine study PBMC, IFN-alpha production ELISA; assay type: cell-based; conditions: human PBMC, Lipofectamine 2000
Experimental: The plates were then incubated at 37 C.
Each condition was done in duplicate
Shown in Tables 69 and 70 are the average from 2 separate PBMC donors of the G-CSF and IFN-alpha production over time as measured by specific ELISA.

[6] = for Serum Concentration 8-12 hours after administration: G-CSF; for G-CSF Protein Expression, Conc: mice IV, serum 8 hrs

Experimental for HEK293 cells: Human embryonic kidney epithelial (HEK293) cells were seeded on 96-well plates at a density of 30,000 cells per well in 100 ul cell culture medium. 250 ng of modified G-CSF mRNA (SEQ ID NO: 6; polyA tail of approximately 160 nucleotides not shown in sequence; 5′cap, Cap1) formulated with RNAiMAX™ (Invitrogen, Carlsbad, Calif.) was added to a well. The G-CSF was completely modified with 5mC and pseudoU (100% modification), not modified with 5mC and pseudoU (0% modification) or was partially modified with 5mC and pseudoU so the mRNA would contain 75% modification, 50% modification or 25% modification. Control samples (AH 5/2, mCherry (SEQ ID NO: 7; polyA tail of approximately 160 nucleotides not shown in sequence; 5′cap, Cap1; fully modified 5mC and pseudoU) and untreated) were also analyzed. […] The supernatants were harvested after 16 hours and the secreted G-CSF protein was analyzed by ELISA.

B1: G-CSF: human G-CSF mRNA, SEQ ID NO: 6, polyA about 160 nt, Cap1, fully modified with 5-methylcytosine and pseudouridine (nucleic acid, listed as Homo sapiens)
chain: GGGAAAUAAGAGAGAAAAGAAGAGUAAGAAGAAAUAUAAGAGCCACCAUGGCCGGUCCCGCGACCCAAAGCCCCAUGAAACUUAUGGCCCUGCAGUUGCUGCUUUGGCACUCGGCCCUCUGGACAGUCCAAGAAGCGACUCCUCUCGGACCUGCCUCAUCGUUGCCGCAGUCAUUCCUUUUGAAGUGUCUGGAGCAGGUGCGAAAGAUUCAGGGCGAUGGAGCCGCACUCCAAGAGAAGCUCUGCGCGACAUACAAACUUUGCCAUCCCGAGGAGCUCGUACUGCUCGGGCACAGCUUGGGGAUUCCCUGGGCUCCUCUCUCGUCCUGUCCGUCGCAGGCUUUGCAGUUGGCAGGGUGCCUUUCCCAGCUCCACUCCGGUUUGUUCUUGUAUCAGGGACUGCUGCAAGCCCUUGAGGGAAUCUCGCCAGAAUUGGGCCCGACGCUGGACACGUUGCAGCUCGACGUGGCGGAUUUCGCAACAACCAUCUGGCAGCAGAUGGAGGAACUGGGGAUGGCACCCGCGCUGCAGCCCACGCAGGGGGCAAUGCCGGCCUUUGCGUCCGCGUUUCAGCGCAGGGCGGGUGGAGUCCUCGUAGCGAGCCACCUUCAAUCAUUUUUGGAAGUCUCGUACCGGGUGCUGAGACAUCUUGCGCAGCCGUGAAGCGCUGCCUUCUGCGGGGCUUGCCUUCUGGCCAUGCCCUUCUUCUCUCCCUUGCACCUGUACCUCUUGGUCUUUGAAUAAAGCCUGAGUAGGAAG
modifications: Cap1; polyA; 5-methylcytosine, pseudouridine
time out to which protein expression was detectable ([1]; intravenous): 7 days
time out to which protein expression was detectable ([1]; subcutaneous and intramuscular): at least 8 hours
G-CSF Serum Concentration ([2]; LNP NPA-030-2, 0.005 mg/kg, 8 hours): 1,550.6 pg/ml
G-CSF Serum Concentration ([2]; LNP NPA-030-2, 0.005 mg/kg, 24 hours): 5,068.9 pg/ml
G-CSF Serum Concentration ([2]; LNP NPA-030-2, 0.05 mg/kg, 8 hours): 462,312.5 pg/ml
G-CSF Serum Concentration ([2]; LNP NPA-030-2, 0.05 mg/kg, 24 hours): 80,903.8 pg/ml
G-CSF Serum Concentration ([2]; LNP NPA-030-2, 0.5 mg/kg, 8 hours): >1,250,000 pg/ml
G-CSF Serum Concentration ([2]; LNP NPA-030-2, 0.5 mg/kg, 24 hours): 495,812.5 pg/ml
G-CSF Serum Concentration ([2]; LNP NPA-030-2, 0.5 mg/kg, 72 hours): 1,325.6 pg/ml
time out to which protein expression was detectable ([2]; LNP, 0.005 mg/kg and 0.05 mg/kg): 72 h
Female NHP Serum Concentration ([3]; 8 hours): 3289 pg/mL
Male NHP Serum Concentration ([3]; 8 hours): 1722 pg/mL
Female NHP Serum Concentration ([3]; 48 hours): 0 pg/mL
Male NHP Serum Concentration ([3]; 48 hours): 0 pg/mL
Female NHP Serum Concentration ([3]; 72 hours): 0 pg/mL
Male NHP Serum Concentration ([3]; 72 hours): 0 pg/mL
Female NHP Serum Concentration ([3]; Pre-bleed): 0 pg/mL
Male NHP Serum Concentration ([3]; Pre-bleed): 0 pg/mL
time out to which protein expression was detectable ([3]; NHP IV, LNP, 0.05 mg/kg): 24 h
Aspartate Transaminase (AST) ([4]; 0.005 mg/kg, 2 days): 34 U/L
Aspartate Transaminase (AST) ([4]; 0.005 mg/kg, 4 days): 36 U/L
Aspartate Transaminase (AST) ([4]; 0.005 mg/kg, 7 days): 31 U/L
Aspartate Transaminase (AST) ([4]; 0.005 mg/kg, 14 days): 20 U/L
Aspartate Transaminase (AST) ([4]; 0.005 mg/kg, Pre-dose): 54 U/L
Aspartate Transaminase (AST) ([4]; 0.05 mg/kg, 1 days): 34 U/L
Aspartate Transaminase (AST) ([4]; 0.05 mg/kg, 4 days): 42 U/L
Aspartate Transaminase (AST) ([4]; 0.05 mg/kg, 7 days): 52 U/L
Aspartate Transaminase (AST) ([4]; 0.05 mg/kg, 14 days): 20 U/L
Aspartate Transaminase (AST) ([4]; 0.05 mg/kg, Pre-dose): 33 U/L
Aspartate Transaminase (AST) ([4]; 0.5 mg/kg, 2 days): 794 U/L
Aspartate Transaminase (AST) ([4]; 0.5 mg/kg, 4 days): 63 U/L
Aspartate Transaminase (AST) ([4]; 0.5 mg/kg, 7 days): 68 U/L
Aspartate Transaminase (AST) ([4]; 0.5 mg/kg, 14 days): 67 U/L
Aspartate Transaminase (AST) ([4]; 0.5 mg/kg, Pre-dose): 47 U/L
Alanine Transaminase (ALT) ([4]; 0.005 mg/kg, 2 days): 39 U/L
Alanine Transaminase (ALT) ([4]; 0.005 mg/kg, 4 days): 48 U/L
Alanine Transaminase (ALT) ([4]; 0.005 mg/kg, 7 days): 29 U/L
Alanine Transaminase (ALT) ([4]; 0.005 mg/kg, 14 days): 44 U/L
Alanine Transaminase (ALT) ([4]; 0.005 mg/kg, Pre-dose): 43 U/L
Alanine Transaminase (ALT) ([4]; 0.05 mg/kg, 2 days): 82 U/L
Alanine Transaminase (ALT) ([4]; 0.05 mg/kg, 4 days): 88 U/L
Alanine Transaminase (ALT) ([4]; 0.05 mg/kg, 7 days): 73 U/L
Alanine Transaminase (ALT) ([4]; 0.05 mg/kg, 14 days): 50 U/L
Alanine Transaminase (ALT) ([4]; 0.05 mg/kg, Pre-dose): 58 U/L
Alanine Transaminase (ALT) ([4]; 0.5 mg/kg, 2 days): 63 U/L
Alanine Transaminase (ALT) ([4]; 0.5 mg/kg, 4 days): 70 U/L
Alanine Transaminase (ALT) ([4]; 0.5 mg/kg, 7 days): 41 U/L
Alanine Transaminase (ALT) ([4]; 0.5 mg/kg, 14 days): 43 U/L
Alanine Transaminase (ALT) ([4]; 0.5 mg/kg, Pre-dose): 29 U/L
Human G-CSF in Serum ([5]; 100 μg (Luc-unsp 150 μg), I. V.): 31.0 pg/mL
Human G-CSF in Serum ([5]; 100 μg, S. C.): 3.9 pg/mL
increase in neutrophil count above control (neutrophil count): four to five fold increase
innate immune recognition, cytokines (IFN-alpha) (IFN-alpha): induced IFN-alpha, TNF-alpha and IP10
Serum Concentration 8-12 hours after administration ([6]; IM, 100 ug, saline): ~20 to 80 pg/mL
Serum Concentration 8-12 hours after administration ([6]; IV (LNP), 1 ug): ~20,000 pg/ml
Serum Concentration 8-12 hours after administration ([6]; IV (LNP), 10 ug): ~1,000,000 pg/ml
Serum Concentration 8-12 hours after administration ([6]; IV (LNP), 100 ug): ~5,000,000 pg/ml
Serum Concentration 8-12 hours after administration ([6]; IV (Lipoplex), 100 ug): ~30 pg/mL
Serum Concentration 8-12 hours after administration ([6]; SC, 100 ug, saline): ~10 to 40 pg/mL
G-CSF Protein Expression, Conc ([6]; LNP NPA-030-1, 10 ug): ~1200 ng/mL
G-CSF Protein Expression, Conc ([6]; LNP NPA-030-1, 100 ug): ~4700 ng/mL
half-life of mRNA (HEK293 cells): 8 to 10 h
